Target: recombinant human IL-8, (ser-IL-8)72 (human, UniProt P10145 28-99)
Assay: inhibition of 125I-IL-8 binding to neutrophils

IC50: 4.9 nM
B1: humanized 6G425 F(ab)-9 (humanized 6G4V11 Fab) (Fab, V domains shown)
VH: EVQLVQSGGGLVQPGGSLRLSCAASGYSFSSHYMHWVRQAPGKGLEWVGYIDPSNGETTYNQKFKGRFTLSRDNSKNTAYLQMNSLRAEDTAVYYCARGDYRYNGDWFFDVWGQGTLVTVSS
VL: DIQMTQSPSSLSASVGDRVTITCRSSQSLVHGIGNTYLHWYQQKPGKAPKLLIYKVSNRFSGVPSRFSGSGSGTDFTLTISSLQPEDFATYYCSQSTHVPLTFGQGTKVEIKR

Source: patent US7122636
